Biological target: bacterially expressed GST-tagged eRF3 (UniProt P15170)
Assay: not stated; unpublished data; bacterially expressed GST-tagged eRF3 with partner translated in rabbit reticulocyte lysate

Kd [nM]	Substance
5	rabbit reticulocyte-lysate-translated PABPC1 (from UniProt P11940 1-636) (natural protein)
> 1000	rabbit reticulocyte-lysate-translated hUpf1 (from UniProt Q92900 1-1129) (natural protein)
